Experimental data: patent US20260167959A1, “APTAZYME-BASED REGULATABLE GENE EXPRESSION SYSTEMS” (REJUVENATE BIO INC, priority 2022, published 2026)

Test system: Renilla luciferase RNA
Assay: Barcoded aptazyme variant library screen: un-cleaved Renilla luciferase RNA by barcode read counts, HEK293-T cells
Assay type: cell-based
Settings: un-cleaved Renilla luciferase RNA, HEK293-T cells cultured with 1 mM theophylline (ON) over without theophylline (OFF); barcode read counts, triplicate
How it was run: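 Barcode sequencing of cDNA versus DNA, normalized per aptazyme, gave the un-cleaved Renilla luciferase RNA fraction and fold-change with versus without theophylline (triplicates). Library: T3H48 ribozyme with one of seven theophylline aptamer variants inserted at each position, placed in the Renilla 3′ UTR of a dual-luciferase vector.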

B1: RA064 (nucleic acid)
DNA: GCGCGTCCTGGATTCGCGGAAACGCGTACAGAATACCAGCATCGTCTTGATGCCCTTGGAAGTCTATCCAGCTGACGAGTCCCAAATAGGACGAAACGCGC
modifications: expressed or natural sequence
- Fold change in RNA expression between the ON state and the OFF state: 1.9 fold

B2: RA057 (nucleic acid)
DNA: GCGCGTCCTGGATTCGCGGAAACGCGTACATCCAGCTGACGAGTCCCAAATAGGACAGAATACCAGCATCGTCTTGATGCCCTTGGAAGTCTGAAACGCGC
modifications: expressed or natural sequence
- Fold change in RNA expression between the ON state and the OFF state: 2.0 fold

B3: RA061 (nucleic acid)
DNA: GCGCGTCCTGGATTCGCGGAAACGCGTACATCCAGCTGACGAGTCCCAAATAGGACGAAACGCGCGGAATACCAGCATCGTCTTGATGCCCTTGGAAGTCC
modifications: expressed or natural sequence
- Fold change in RNA expression between the ON state and the OFF state: 1.9 fold

B4: RA058 (nucleic acid)
DNA: GCGCGTCCTGGATTCGCGGAAACGCGTACATCCAGAGAATACCAGCATCGTCTTGATGCCCTTGGAAGTCTCGCTGACGAGTCCCAAATAGGACGAAACGCGC
modifications: expressed or natural sequence
- Fold change in RNA expression between the ON state and the OFF state: 2.0 fold

B5: RA062 (nucleic acid)
DNA: GCGCGTCCTGGATTCGCGGAAACGCCCGGAATACCAGCATCGTCTTGATGCCCTTGGAAGTCCGGGTACATCCAGCTGACGAGTCCCAAATAGGACGAAACGCGC
modifications: expressed or natural sequence
- Fold change in RNA expression between the ON state and the OFF state: 1.9 fold

B6: RA005 (nucleic acid)
DNA: GCGCGTCCTGGATTCGCGGAAACCGGAATACCAGCATCGTCTTGATGCCCTTGGAAGTCCGGCGCGTACATCCAGCTGACGAGTCCCAAATAGGACGAAACGCGC
modifications: expressed or natural sequence
- Fold change in RNA expression between the ON state and the OFF state: 5.2 fold

B7: RA063 (nucleic acid)
DNA: GCGCGTCCTGGATTCAGTGATACCAGCATCGTCTTGATGCCCTTGGCAGCACTGCGGAAACGCGTACATCCAGCTGACGAGTCCCAAATAGGACGAAACGCGC
modifications: expressed or natural sequence
- Fold change in RNA expression between the ON state and the OFF state: 1.9 fold

B8: RA060 (nucleic acid)
DNA: GCGCGTCCTGGATTCGCGGAAACGCGTACATCCAGCTGACGAGTCCCAAATAGGACGAAACGCGGGAATACCAGCATCGTCTTGATGCCCTTGGAAGTCCC
modifications: expressed or natural sequence
- Fold change in RNA expression between the ON state and the OFF state: 1.9 fold

B9: RA065 (nucleic acid)
DNA: GCTGTCACCGGAATACCAGCATCGTCTTGATGCCCTTGGAAGTCCGGTCTGATGAGTCCCAGAAGGACGAAACAGC
modifications: expressed or natural sequence
- Fold change in RNA expression between the ON state and the OFF state: 1.9 fold

B10: RA066 (nucleic acid)
DNA: GCGCGTCCTGGATTCGCGGAAAGAATACCAGCATCGTCTTGATGCCCTTGGAAGTCTACGCGTACATCCAGCTGACGAGTCCCAAATAGGACGAAACGCGC
modifications: expressed or natural sequence
- Fold change in RNA expression between the ON state and the OFF state: 1.9 fold

B11: RA067 (nucleic acid)
DNA: GCGCGTCCTGGATTCGCGGAAACGCGTACATCCAGTGATACCAGCATCGTCTTGATGCCCTTGGCAGCACTAGCTGACGAGTCCCAAATAGGACGAAACGCGC
modifications: expressed or natural sequence
- Fold change in RNA expression between the ON state and the OFF state: 1.8 fold

B12: RA059 (nucleic acid)
DNA: GCGCGTCCTGGATTCCCGGAATACCAGCATCGTCTTGATGCCCTTGGAAGTCCGGGCGGAAACGCGTACATCCAGCTGACGAGTCCCAAATAGGACGAAACGCGC
modifications: expressed or natural sequence
- Fold change in RNA expression between the ON state and the OFF state: 1.9 fold
